For two molecules, IC50 and Kd results are on record in article PMC7846786, “DutaFabs are engineered therapeutic Fab fragments that can bind two targets simultaneously” (Nature Communications, 2021).

Holding throughout (settings): both partners purified
The target of test [1] is T1, recombinant human VEGFA-121 (Homo sapiens, strain).
T1 construct: homodimer; Two suppliers are named for different experiments; also called VEGFA dimer; source: bought: Peprotech (catalog number 100-20A; panning, crystallisation); bought: Humanzyme (ELISAs)
T1 chain: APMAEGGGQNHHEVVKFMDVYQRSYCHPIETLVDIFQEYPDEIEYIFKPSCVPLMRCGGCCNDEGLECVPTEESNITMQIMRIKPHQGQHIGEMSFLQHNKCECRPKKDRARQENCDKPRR
The test can be described thus: ELISA; IC50 competition ELISA: rhVEGFR-1-Fc (1 µg/mL) or rhPDGFRβ-Fc (0.5 µg/mL) coated; ligand (5 pM VEGFA-165, 8 pM VEGFA-121 or 5 pM PDGF-BB) pre-incubated 1.5 h with 1:2 dilutions of Fab in PBS, 0.1% Tween-20, 1% BSA; 10 min on the plate at RT; free ligand detected with biotinylated anti-hVEGF or anti-hPDGF-BB goat IgG; 4-parameter fit.

Test [2] has as its target T2, recombinant human VEGFA-165 (Homo sapiens, UniProt P15692-4, strain).
T2 construct: homodimer; source: bought: Humanzyme
The description is as above.

The target of test [3] is T3, recombinant human PDGF-BB (human, UniProt P01127).
T3 construct: platelet-derived growth factor subunit B, human; homodimer; Two suppliers and two Peprotech catalogue numbers are printed; also called PDGF-BB dimer; source: bought: R&D Systems (ELISAs); bought: Peprotech (catalog number 100-14B for panning; 100-13A printed for crystallisation)
T3 sequence (P01127 82-190): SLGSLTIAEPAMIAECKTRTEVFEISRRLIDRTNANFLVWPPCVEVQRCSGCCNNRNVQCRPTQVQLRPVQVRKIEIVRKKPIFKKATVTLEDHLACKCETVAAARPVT
Described as above.

Test [4] has as its target T4, rat VEGF-A121 (Rattus norvegicus, UniProt P16612-4, strain).
T4 construct: The homodimer is stated for VEGFA in general
The test can be described thus: SPR; affinities of the Fab fragments used in the in-vivo study for human and rat VEGF-A121, expressed as KD (nM); who was immobilised and the conditions not given.

For test [5], the target named is T5, human VEGFA-121 (Homo sapiens, UniProt P15692).
T5 construct: homodimer
T5 sequence (P15692 other isoform, or with tags, fused parts or gaps): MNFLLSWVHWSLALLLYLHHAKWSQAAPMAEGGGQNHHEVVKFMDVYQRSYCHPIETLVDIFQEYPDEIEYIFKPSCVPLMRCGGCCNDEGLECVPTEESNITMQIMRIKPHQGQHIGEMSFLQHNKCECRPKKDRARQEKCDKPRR
The description is as above.

Test [6] has as its target T6, PDGF-BB (Homo sapiens, UniProt P01127).
T6 construct: platelet-derived growth factor subunit B, human, recombinant; homodimer PDGF-BB; as I recall, the commercial protein is the 109-residue mature B chain (residues 82-190 of the precursor); also called recombinant human PDGF-BB; source: 100-13A is printed for crystallization) and from R&D Systems
The test can be described thus: kinetic exclusion assay (KinExA); in solution; 4 h pre-incubation of 50 pM DutaFab with 244 fM-4 nM PDGF-BB, or of 100 pM DutaFab with 122 fM-2 nM VEGFA-121; duplicate 1:2 titration series; 25 °C. (A kinetic exclusion assay measures how much of one partner remains free in solution.)

Test [7] addresses T6, PDGF-BB. The description is as above. The source holds these as a separate data set.
The target in test [8] is T5, human VEGFA-121. Described as above.

As usually defined, the IC50 is the point on the concentration scale where inhibition reaches its midpoint. One may read the Kd as the equilibrium constant for the complex coming apart. Higher therefore signals lower affinity.

T6 sequence (P01127 82-190): as the sequence (P01127 82-190) above
T2 sequence (P15692 whole entry, looked up, change not shown): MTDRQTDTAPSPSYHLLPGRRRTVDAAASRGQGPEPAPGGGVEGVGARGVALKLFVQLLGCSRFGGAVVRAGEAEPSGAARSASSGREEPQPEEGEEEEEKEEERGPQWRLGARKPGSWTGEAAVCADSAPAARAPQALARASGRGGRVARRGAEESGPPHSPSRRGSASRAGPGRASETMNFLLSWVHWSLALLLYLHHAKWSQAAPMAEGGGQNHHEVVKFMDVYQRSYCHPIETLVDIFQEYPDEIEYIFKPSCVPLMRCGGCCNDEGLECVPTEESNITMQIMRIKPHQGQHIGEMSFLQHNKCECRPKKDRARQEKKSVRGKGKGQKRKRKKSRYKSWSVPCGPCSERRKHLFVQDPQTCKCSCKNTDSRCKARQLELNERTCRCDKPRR

B1: DutaFab clone VP (initial bispecific DutaFab against VEGFA and PDGF-BB) (Fab, V domains shown)
VH: EEQLVESGGGLVQPGGSLRLSCAASGWWFEYTDMSWVRQAPGQGLEWVGSISPSGGSTYYNTNFIGRFTISRDDSKNTLYLQMNSLRDEDTAVYYCARDEGYFDEWGQGTLVTVSS
VL: AIQMTQSPSSLSASVGDRVTITCQASYWLHKYLAWYQQKPGQAPKLLIYDASELEYGVPDRFSGSGSGTDFTLTISSLEPEDFAVYYCQNYRYHPYTFGQGTKLEIK
notes: human VH3 scaffold with CH1; H-side paratope against PDGF-BB; human Vk1 scaffold with Ck; L-side paratope against VEGFA; Bispecific Fab with two paratopes in one Fv; also called DutaFab VP; original bispecific DutaFab VP; source: periplasmic expression in E. coli or HEK Expi293 cells, purified (kappa select, then cation exchange or SEC)
B1: the figures for the concentration for half-maximal inhibition (IC50) in test [1], in test [2] and in test [3] were 894 pM, 23 pM and 21000 pM, respectively.

B2: DutaFab VP mat YHE (Fab, V domains shown)
VH: DLQLVESGGGLVKPGGSLRLSCAADGWWFGYTDMSWVRQAPGKGLEWVGSISYKGGSTYYNTKFIGRFTISRDDDTNTLYLQMNSLRAEDTAVYYCARDDGYFDTWGQGTLVTVSS
VL: AIYMHQEPSSLSASVGDRVTITCHGSYWLSNYLAWYQQKPGKAPKLLIYDGKEREHGVPSRFSGSGSHEDYTLTISSLQPEDFATYYCQQYRYHPYTFGHGTKVEIK
notes: human CH1 constant domain, as the heavy chain of Dm1 (PDB 6T9D, 6T9E); that R108 may be the first residue of the UniProt entry, so it must not be doubled; Co-operativity variant of Dm1; the PDB entries hold the parent VP mat; also called clone VP mat YHE; source: periplasmatic expression in E. coli or HEK Expi293 cells, purified (kappa select, then cation exchange or SEC)
Turning to B2, the Kd worked out at 43 pM in test [4]; 5 pM in test [5]; 4.02 pM in test [6]; 6 pM in test [7]; 3.23 pM in test [8].
